Results on 8 molecules are retold here after US20260265360A1, “USE OF ANTI-FAM19A5 ANTAGONISTS FOR TREATING HEARING DISORDERS” (NEURACLE SCIENCE CO., LTD., priority 2023, published 2026).

Assay type in all cases: binding
Experiment [1] addresses T1, FAM19A5 mutants M1 to M8 (Homo sapiens, UniProt Q7Z5A7).
T1 construct: made in house; host or cells: phage display with helper phage
As to the kind of experiment: Epitope mapping ELISA with FAM19A5 mutants M1-M8. On the procedure:
(§1) To further characterize the binding epitopes of the anti-FAM19A5 antibodies disclosed in the present disclosure, the amino acid sequences for the different FAM19 family members (i.e., FAM19A1-5) were aligned. […] The amino acid sequences of these regions were replaced with the consensus sequence of the corresponding regions for the FAM19A1-4 proteins. See Table 13 (the mutated amino acid residues are bolded and underlined).
(§2) The mutant FAM19A5-expressing phages were prepared as follows. To prepare the media for phage culture, 55.6 ml of 2M Glucose (D-(+)-Glucose, Sigma), 5 mL of 1M MgCl2 (Magnesium chloride, Junsei) 1 mL of 34 mg/mL chloramphenicol (Sigma) were added to 2×YT media. Colonies obtained through mono-phage ELISA were selected and placed in 5 mL of prepared media (2×YT-GMC) to be cultured for 16 hours at 37° C. with shaking incubator (VS-8480, Vision). 100 μL of each culture was transferred to 10 mL 2×YT-GMC individually which were cultured at 37° C. in the incubator until detection value at O.D. 600 nm reached 0.5. Once detection value has reached 0.5 at O.D. 600 nm, 5 mL of each culture were obtained as samples to be infected. Following sample preparation, 50 μL of […] was added to individual samples then incubated at 37° C. without shaking for 30 minutes and with shaking for additional 30 minutes. Individual cultures were centrifuged for 15 minutes at 3,850 rpm using Micro centrifuge (Micro12, Hanil). The supernatants of centrifuged cultures were removed to be kept separate and replaced with 5 mL of 2×YT media containing 1 mL of IM IPTG (AG Scientific), 5 mL of 1M MgCl2.1 ml of 70 μg/μL kanamycin (Biopure) and 1 mL of Chloramphenicol. The resulting pellets were dispersed thoroughly in newly added media followed by incubation at 30° C. for 16 hours with stirring.

In the next experiment the target is FAM19A5 antigen (Homo sapiens, UniProt Q7Z5A7). As to the kind of experiment: Cross-competition two-site sandwich ELISA. Particulars: antibodies 1-65, P2-A03, P2-F11, 13B4, 2-13, 3-2; cross-competition = S/N ratio lower than 2. On the procedure:
The term “S/N” refers to the signal to noise ratio, which is measured as follows: [O.D. of 10 ng/ml antigen]/[O.D. of 0 ng/ml antigen].
Next, a two-site sandwich ELISA was used as described below to assess whether the different anti-FAM19A5 antibodies with similar binding epitopes cross-compete with each other.
First, the indicated anti-FAM19A5 antibodies were diluted in 1×PBS to a concentration of 10 μg/mL. The diluted anti-FAM19A5 antibodies (10 μg/mL in 1×PBS) (“capture antibody”) were used to coat the 96-well plates (100 μL/well) at 37° C. for approximately 1 hour. After the incubation, the plates were washed with the washing buffer (0.01% Tween-20/PBS; also called 0.01% PBST) for a total of five washes, blocked with the blocking solution (5% BSA/PBS; also called 5% PBSA) (250 μL/well) for one hour at 37° C., and then washed again. Next, 100 μg/mL of the FAM19A5 antigen (diluted in PBS containing 5% BSA, 0.01% Tween-20; also called 5% PBSAT; “diluent buffer) was added to each of the wells, and the 96-well plates were incubated for 2 hours at 37° C. After the incubations, the plates were washed using 0.01% PBST for a total of five washes. After the final wash, the indicated biotinylated anti-FAM19A5 antibodies (“detection antibody”) (diluted to lug/mL in 5% PBSAT) were added to the relevant wells (100 μL volume) and the plates were incubated for an additional 1 hour at 37° C. Afterwards, the plates were washed again with 0.01% PBST (five total washes). Next, 100 μL of the diluted (1/2000 in 5% PBSAT) Streptavidin-HRP (1 mg/mL, Sigma, USA) was added to the wells, and the plates were incubated for 30 minutes at room temperature. The plates were then washed and treated with 100 μL of the TMB substrate ([…], Thermo Fisher Scientific). After an additional 30-minute incubation at room temperature, the color change reaction was induced by the addition of the TMB substrate. This reaction was stopped using 50 μL of sulfuric acid (2N H2SO4), and the extent of color change was detected via absorption at 450 nm with reference wavelength at 620 nm using a 96 well microplate reader (Molecular Device).
(In general: In an ELISA, binding on a coated surface is turned into a signal by an enzyme label.)

Experiment [2] deals with T2, FAM19A5 mutants M1 to M8 (Homo sapiens, UniProt Q7Z5A7, D109K/G107E/I112P/L110T/N113D/R114N).
T2 construct: made in house; host or cells: phage display with helper phage
T2 sequence (Q7Z5A7 26-125 isoform Q7Z5A7-2 G100E/D102K/L103T/I105P/N106D/R107N): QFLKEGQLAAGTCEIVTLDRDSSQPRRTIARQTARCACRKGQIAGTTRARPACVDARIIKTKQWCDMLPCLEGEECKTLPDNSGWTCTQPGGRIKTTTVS
As to the kind of experiment: Epitope mapping ELISA with FAM19A5 mutants M1-M8. On the procedure: as §1, §2

T1 sequence (Q7Z5A7 with tags, fused parts or gaps isoform Q7Z5A7-2, change not shown): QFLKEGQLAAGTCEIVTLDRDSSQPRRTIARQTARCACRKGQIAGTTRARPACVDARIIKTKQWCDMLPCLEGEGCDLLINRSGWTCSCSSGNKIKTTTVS
Chain of FAM19A5 antigen (Q7Z5A7 44-132): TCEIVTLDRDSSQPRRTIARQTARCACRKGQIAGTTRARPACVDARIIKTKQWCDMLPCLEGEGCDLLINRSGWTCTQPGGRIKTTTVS

B1: P1-A08: anti-FAM19A5 antibody; VH SEQ ID NO: 160, VL SEQ ID NO: 171 (antibody, V domains shown)
VH: QSLEESGGRLVTPGTPLTLTCTASGFSLSTYYMSWVRQAPGKGLEWIGIVYPSGTTYYANWAKGRFTISTASTTVDLMITSPTTEDTATYFCARGDSFGYGLWGPGTLVTVSS
VL: ELVLTQSPSVQVNLGQTVSLTCTADTLSRSYASWYQQKPGQAPVLLIYRDTSRPSGVPDRFSGSSSGNTATLTISGAQAGDEADYYCATSDGSGSNYQYVFGGGTQLTVT
modifications: P1-A08 VH; P1-A08 VL
Regarding B1, in the experiment with FAM19A5 mutants M1 to M8 [1], the “binding to FAM19A5 mutant M8” value is listed as “failed to bind”.

B2: P2-F11: anti-FAM19A5 antibody; VH SEQ ID NO: 165, VL SEQ ID NO: 176 (antibody, V domains shown)
VH: QEQLVESGGRLVTPGTTLTLTCTVSGFSLSSYGVSWVRQAPGKGLEWIGYIANNYNPHYASWAKGRFTISKTSSTTVDLKMTSLTTEDTATYFCARDNYGMDPWGPGTLVTVSS
VL: ELDLTQTPSSVSAAVGGTVTINCQASQSVYNNKNLAWYQQKPGQPPKLLIYAASTLASGVSSRFKGSGSGTQFTLTISDVQCDDAATYYCQGEFSCSSADCNAFGGGTELEIL
modifications: P2-F11 VH; P2-F11 VL
For the molecule B2, the “binding to FAM19A5 mutant M8” value with FAM19A5 mutants M1 to M8 [1] is listed as “failed to bind”. In the experiment with FAM19A5 antigen, the “cross-competition with the other anti-FAM19A5 antibodies” value is on record as “cross-competed with one another”.

B3: 15A9: anti-FAM19A5 antibody; VH SEQ ID NO: 158, VL SEQ ID NO: 169 (antibody, V domains shown)
VH: QVQLQESGPGLVKPSETLSLTCTVSGGSISSYYWSWIRQPPGKGLEWIGYIYPSGSTNYNPSLKSRVTISVDTSKNQFSLNLKSVTAVDTAVYYCARVNPFGYYYAMDVWGQGTTVTVSS
VL: DIQMTQSPSSLSASVGDRITISCRASQSISTSLNWYQQTPGKAPRLLIYGASTLQSGVPSRFSGGGSGTDFSLTITSLQPEDFATYYCQESASIPRTFGQGTKLDIK
modifications: 15A9 VH; 15A9 VL
With B3, in the experiment with FAM19A5 mutants M1 to M8 [1], the “binding to FAM19A5 mutant M8” value was “failed to bind”. The “binding to FAM19A5 mutant M7” value with FAM19A5 mutants M1 to M8 [2] was “reduced binding”.

B4: 13F7: anti-FAM19A5 antibody; VH SEQ ID NO: 157, VL SEQ ID NO: 168 (antibody, V domains shown)
VH: QVQLQEWGAGLLKPSETLSLTCAINAESFNGYSWTWIRQTPGKGLEWIGEISHFGSANYNPSLKSRATISADKSKNQFSLKLTSVTAVDTAVYYCARALRGTYSRFYYGMDVWGQGTTVTVSS
VL: DIVMTQTPLSLPVAPGEPASISCRSSQSLLHSNGYNYLDWYVQKPGQPPQLLIYLGSNRASGVPDRFSGSGSGTDFTLKISRVEAEDVGVYYCMQARQTPLTFGGGTKVEIK
modifications: 13F7 VH; 13F7 VL
As to B4, the “binding to FAM19A5 mutant M8” value with FAM19A5 mutants M1 to M8 [1] is recorded as “failed to bind”. The “binding to FAM19A5 mutant M7” value in the experiment with FAM19A5 mutants M1 to M8 [2] is recorded as “reduced binding”.

B5: P1-F02: anti-FAM19A5 antibody; VH SEQ ID NO: 161, VL SEQ ID NO: 172 (antibody, V domains shown)
VH: QSLEESGGRLVTPGTPLTLTCTASGFSLSNYYMGWVRQAPGEGLEWIGIIYASGSTYYASWAKGRFTISKTSTTVDLKMTSLTTEDTATYFCARIDIGVGDYGWAYDRLDLWGQGTLVTVSS
VL: ELDMTQTPPSLSASVGETVRIRCLASEDIYSGISWYQQKPGKPPTLLIYGASNLESGVPPRFSGSGSGTDYTLTIGGVQAEDAATYYCLGGYSYSSITFGAGTNVEIK
modifications: P1-F02 VH; P1-F02 VL
Turning to B5, the “binding to FAM19A5 mutant M8” value with FAM19A5 mutants M1 to M8 [1] was “failed to bind”.

B6: P2-F07: anti-FAM19A5 antibody; VH SEQ ID NO: 164, VL SEQ ID NO: 175 (antibody, V domains shown)
VH: QSLEESGGRLVTPGTPLTLTCTASGFSLSSYYMNWVRQAPGKGLEWIGIIYPSGTTYYAGWAKGRFTISKTSTTVDLKITSPTSEDTATYFCARTVSGYFDIWGPGTLVTVSL
VL: ELDLTQTPPSLSASVGGTVTINCLASEDIYSALAWYQQKPGKPPTLLISGTSNLESGVPPRFSGSGSGTDYTLTIGGVQAEDAATYFCQGYSSYPLTFGAGTNVEIK
modifications: P2-F07 VH; P2-F07 VL
For the molecule B6, in the experiment with FAM19A5 mutants M1 to M8 [1], the “binding to FAM19A5 mutant M8” value is reported as “failed to bind”.

B7: P2-A01: anti-FAM19A5 antibody; VH SEQ ID NO: 162, VL SEQ ID NO: 173 (antibody, V domains shown)
VH: QEQLVESGGRLVTPGTPLTLSCTASGFFLSGYYMSWVRQAPGKGLEWIGIIYPSGSTDYASWAKGRFTISKTSTTVDLKITTPTTEDTATYFCARVAGYVGYGYETFFDIWGPGTLVTVSL
VL: ELVMTQTPPSLSASVGETVRIRCLASEDIYSGISWYQQKPGKPPTLLIYGASNLESGVPPRFSGSGSGSDYTLTIGGVQAEDAATYYCLGGVTYSSTGTHLTFGAGTNVEIK
modifications: P2-A01 VH; P2-A01 VL
For the molecule B7, the “binding to FAM19A5 mutant M8” value with FAM19A5 mutants M1 to M8 [1] is listed as “failed to bind”.

B8: P2-A03: anti-FAM19A5 antibody; VH SEQ ID NO: 163, VL SEQ ID NO: 174 (antibody, V domains shown)
VH: QSVEESGGRLVTPGTPLTLTCTVSGFSLNNYDMSWVRQAPGKGLEYIGFMDTDGSAYYATWAKGRFTISRTSTTVDLKMTSPTTEDTATYFCARRGSSYYGGIDIWGPGTPVTVSL
VL: ELDLTQTPASVSEPVGGTVTIKCQASQSIGGNLAWYQQKPGQPPKLLIYRASTLASGVPSRFKGSGSGTDFTLTISDLECADAATYYCQSPAYDPAAYVGNAFGGGTELEIL
modifications: P2-A03 VH; P2-A03 VL
With B8, the “binding to FAM19A5 mutant M8” value in the experiment with FAM19A5 mutants M1 to M8 [1] is “failed to bind”. The “cross-competition with the other anti-FAM19A5 antibodies” value with FAM19A5 antigen is “cross-competed with one another”.
